We go through one molecule from patent US20040002439A1 (ORTHO MCNEIL PHARMACEUTICAL, published 2004).

For the assay, the target named is Nav1.2 (a type II alpha subunit). Kind of assay: cell-based or functional assay.

B1: human voltage gated sodium channel β1A subunit (other)
chain: ACGGCVEVDSETEAVYGMTFKILCISCKRRSETNAETFTEWTFRQKGTEEFVKILRYENEVLQLEEDERFEGRVVWNGSRGTKDLQDLSIFITNVTYNHSGDYECHVYRLLFFENYEHNTSVVKKIHIEVVDKGESGAACPFTVTHRRARWRDRWQAVDRTGWLCAWPANRPQQRAEGEGSSPSCPLQLWPLFLSSPRRGQSMPVPHRRSGYRTQLCHLCCMTSGRCLLSLSQRVVLGLPGIIIRCVSRGVV
For B1, the “ionic current conducted by Nav1.2 in Xenopus oocytes (cut-open oocyte voltage clamp)” value is around 3 fold.
